{"source": "paper PMC7018998", "key": {"ErbB2 [1]": {"molecular_target": "ErbB2 (UniProt P04626)", "assay": "two-colour single molecule co-localisation and tracking (TOCCSL, TIR microscopy); live CHO-ErbB2-ErbB3 cells; AF488-ErbB3-Fab and AF647-ErbB3-Fab for homodimers, AF488-ErbB2-Fab and AF647-ErbB3-Fab for heterodimers; no HRG, no pertuzumab; room temperature", "settings": "other: two-colour single molecule co-localisation and tracking (TOCCSL, TIR microscopy)"}, "ErbB2 [2]": {"molecular_target": "ErbB2 (UniProt P04626)", "assay": "two-colour single molecule co-localisation and tracking (TOCCSL, TIR microscopy); live CHO-ErbB2-ErbB3 cells; AF488-ErbB3-Fab and AF647-ErbB3-Fab for homodimers, AF488-ErbB2-Fab and AF647-ErbB3-Fab for heterodimers; with 200 ng/mL (25 nM) HRG, no pertuzumab; room temperature", "settings": "other: two-colour single molecule co-localisation and tracking (TOCCSL, TIR microscopy)"}}, "data": [{"substance": "ErbB3", "values": [{"measurement": "percent of ErbB3 in ErbB3/ErbB2 heterodimers", "setting": "ErbB2 [1]", "result": "∼70% of ErbB3 being associated to ErbB3/ErbB2 heterodimers"}, {"measurement": "percent of ErbB3 in ErbB3/ErbB2 heterodimers", "setting": "ErbB2 [2]", "result": "a further increase of ErbB3/ErbB2 heterodimerization (∼90%"}]}]}
